Earlier results on 1 molecule are cited in patent US4347323A, “Glycerol kinase from Streptomyces canus” (Toyo Jozo Kabushiki Kaisha, priority 1979, dated 1982).

The conditions of this data set: known glycerol kinases.

B1: E.Co-GK: known glycerol kinase of Escherichia coli (protein, UniProt P0A6F3 2-502, looked up)
Glycerol kinase: TEKKYIVALDQGTTSSRAVVMDHDANIISVSQREFEQIYPKPGWVEHDPMEIWATQSSTLVEVLAKADISSDQIAAIGITNQRETTIVWEKETGKPIYNAIVWQCRRTAEICEHLKRDGLEDYIRSNTGLVIDPYFSGTKVKWILDHVEGSRERARRGELLFGTVDTWLIWKMTQGRVHVTDYTNASRTMLFNIHTLDWDDKMLEVLDIPREMLPEVRRSSEVYGQTNIGGKGGTRIPISGIAGDQQAALFGQLCVKEGMAKNTYGTGCFMLMNTGEKAVKSENGLLTTIACGPTGEVNYALEGAVFMAGASIQWLRDEMKLINDAYDSEYFATKVQNTNGVYVVPAFTGLGAPYWDPYARGAIFGLTRGVNANHIIRATLESIAYQTRDVLEAMQADSGIRLHALRVDGGAVANNFLMQFQSDILGTRVERPEVREVTALGAAYLAGLAVGFWQNLDELQEKAVIEREFRPGIETTERNYRYAGWKKAVKRAMAWEEHDE
Take B1: the pH stability is 6.5-7 pH.
